How the values were obtained:
[1] = test system: SBS 30888 ZFN; test: cell_activity; details: paired with 30886 in G2019S heterozygous patient iPSC; pair more specific for G2019S mutant; value is % clones with monoallelic NHEJ (17% biallelic NHEJ)
[2] = test system: SBS 30886 ZFN; test: cell_activity; details: paired with 30888 in G2019S heterozygous patient iPSC; value is % clones with monoallelic NHEJ (17% biallelic NHEJ)

Sequence | activity [1] | activity [2]
GCAAAGATTGCTGACTACAGCATTGCTC (double strand) [LRRK2 6055G>A (G2019S) target of 30888] | 46% | 
TGATGGCAGCATTGGGATACAGTGTGAA (double strand) [LRRK2 target of 27865/27866/27867/27868/30886] |  | 46%

Source: patent US20120214241
